Measured values taken from patent US12448610B2, “Preparation of glycosyltransferase UGT76G1 mutant and use thereof” (CAS Center for Excellence in Molecular Plant Sciences, priority 2019, dated 2025).

What was measured:
Type in all cases: biochemical
[1] = Enzymic reaction of UGT76G1 wild-type and mutants in vitro, substrate isoorientin, products detected by HPLC; details: for conversion efficiency of isoorientin (compound 1): HPLC analysis of FIG. 1; for conversion efficiency of isoorientin (compound 1) / glycosylation efficiency: in words; for yield of compound 2 as compared with the wild type / yield of compound 3 as compared with the wild type: substrate isoorientin 250 μM, 5 μg protein, 1.5 mM UDP-glucose, 37° C. overnight, HPLC peak area, 100% for the wild type; for glycosylation efficiency: substrate isoorientin, versus wild type
Description: The enzyme activity of the glycosyltransferase UGT76G1 mutant can be detected by a technique known in the art. In a specific example of the present invention, the enzyme reaction system with the same conditions is used to detect the enzyme activity of different mutants in vitro. After the reaction, the product was detected by HPLC. The change of a mutant's catalytic activity was analyzed by comparing the relative conversion ratio of the flavonoid isoorientin by the mutant and the wild-type protein.
(§1) The enzymic reaction system (50 μL) includes: 5 μg protein, 1.5 mM UDP-glucose, 250 μM glycosyl acceptor substrate isoorientin, orientin, apigenin or luteolin, and Buffer A (20 mM Tris-HCl, pH=8.0, 100 mM NaCl). The reaction of each mutant protein for the same substrate was repeated three times. Reaction conditions: 37° C. overnight. The reaction was quenched with an equal volume of methanol. After vigorous shaking, the reaction was centrifuged at 12000 rpm for 30 min. The supernatant was used for HPLC detection. Detection method: mobile phase A (acetonitrile, containing 0.1% formic acid)—mobile phase B (water, containing 0.1% formic acid) gradient elution. Chromatographic conditions: gradient elution from initial 5% A to 50% A within 11 min, elution at 100% A for 4 min, and back to 5% A within 1 min for equilibration for 4 min. The peak area of the catalytic product of the mutant was calculated and compared with the peak area of the catalytic product of wild-type UGT76G1.

[2] = Enzymic reaction of UGT76G1 wild-type and mutants in vitro, substrate orientin, products detected by HPLC; details: in words
Description: as §1

[3] = Enzymic reaction of UGT76G1 wild-type and mutants in vitro, substrate luteolin, products detected by HPLC; details: HPLC analysis of FIG. 8; compared with wild-type (WT) or mutants I90L, I199L; in words
Description: as §1

[4] = Enzymic reaction of UGT76G1 wild-type and mutants in vitro, substrate apigenin, products detected by HPLC; details: HPLC analysis of FIG. 7; compared with wild-type (WT) or mutants I90L, I199L; in words
Description: as §1

[5] = substrate orientin, versus wild type

Molecule | conversion efficiency of isoorientin (compound 1) [1] | conversion rate for orientin (compound 4) ([2]; HPLC analysis of FIG. 5) | yield of compound 2 as compared with the wild type [1] [%] | yield of compound 3 as compared with the wild type [1] [%] | glycosylation efficiency [1] | production efficiency of product 5 [2, 5] | glycosylation products of luteolin (compound 8) [3] | glycosylation products of apigenin (compound 7) [4] | production efficiency of product 6 [2, 5]
wild-type UGT76G1: wild-type glycosyltransferase UGT76G1 derived from Stevia rebaudiana, amino acid sequence of SEQ ID NO: 1 (protein, listed as Stevia rebaudiana) MENKTETTVRRRRRIILFPVPFQGHINPILQLANVLYSKGFSITIFHTNFNKPKTSNYPHFTFRFILDNDPQDERISNLPTHGPLAGMRIPIINEHGADELRRELELLMLASEEDEEVSCLITDALWYFAQSVADSLNLRRLVLMTSSLFNFHAHVSLPQFDELGYLDPDDKTRLEEQASGFPMLKVKDIKSAYSNWQILKEILGKMIKQTKASSGVIWNSFKELEESELETVIREIPAPSFLIPLPKHLTASSSSLLDHDRTVFQWLDQQPPSSVLYVSFGSSSEVDEKDFLEIARGLVDSKQSFLWVVRPGFVKGSTWVEPLPDGFLGERGRIVKWVPQQEVLAHGAIGAFWTHSGWNSTLESVCEGVPMIFSDFGLDQPLNARYMSDVLKVGVYLENGWERGEIANAIRRVMVDEEGEYIRQNARVLKQKADVSLMKGGSSYESLESLVSYISSL | low | a certain conversion rate |  |  |  |  |  |  | 
L204F: glycosyltransferase UGT76G1 mutant, mutation of L at 204th to F (SEQ ID NO: 4) (protein, Variant) MENKTETTVRRRRRIILFPVPFQGHINPILQLANVLYSKGFSITIFHTNFNKPKTSNYPHFTFRFILDNDPQDERISNLPTHGPLAGMRIPIINEHGADELRRELELLMLASEEDEEVSCLITDALWYFAQSVADSLNLRRLVLMTSSLFNFHAHVSLPQFDELGYLDPDDKTRLEEQASGFPMLKVKDIKSAYSNWQILKEIFGKMIKQTKASSGVIWNSFKELEESELETVIREIPAPSFLIPLPKHLTASSSSLLDHDRTVFQWLDQQPPSSVLYVSFGSSSEVDEKDFLEIARGLVDSKQSFLWVVRPGFVKGSTWVEPLPDGFLGERGRIVKWVPQQEVLAHGAIGAFWTHSGWNSTLESVCEGVPMIFSDFGLDQPLNARYMSDVLKVGVYLENGWERGEIANAIRRVMVDEEGEYIRQNARVLKQKADVSLMKGGSSYESLESLVSYISSL |  |  | 285 | 159 | significantly increased | can increase | significantly different from those converted by wild-type | significantly different from those converted by wild-type | 
I199F: glycosyltransferase UGT76G1 mutant, mutation of I at 199th to F (SEQ ID NO: 3) (protein, Variant) MENKTETTVRRRRRIILFPVPFQGHINPILQLANVLYSKGFSITIFHTNFNKPKTSNYPHFTFRFILDNDPQDERISNLPTHGPLAGMRIPIINEHGADELRRELELLMLASEEDEEVSCLITDALWYFAQSVADSLNLRRLVLMTSSLFNFHAHVSLPQFDELGYLDPDDKTRLEEQASGFPMLKVKDIKSAYSNWQFLKEILGKMIKQTKASSGVIWNSFKELEESELETVIREIPAPSFLIPLPKHLTASSSSLLDHDRTVFQWLDQQPPSSVLYVSFGSSSEVDEKDFLEIARGLVDSKQSFLWVVRPGFVKGSTWVEPLPDGFLGERGRIVKWVPQQEVLAHGAIGAFWTHSGWNSTLESVCEGVPMIFSDFGLDQPLNARYMSDVLKVGVYLENGWERGEIANAIRRVMVDEEGEYIRQNARVLKQKADVSLMKGGSSYESLESLVSYISSL |  |  | 799 | 278 | significantly increased |  |  |  | 
G87F: glycosyltransferase UGT76G1 mutant, mutation of G at 87th to F (SEQ ID NO: 2) (protein, Variant) MENKTETTVRRRRRIILFPVPFQGHINPILQLANVLYSKGFSITIFHTNFNKPKTSNYPHFTFRFILDNDPQDERISNLPTHGPLAFMRIPIINEHGADELRRELELLMLASEEDEEVSCLITDALWYFAQSVADSLNLRRLVLMTSSLFNFHAHVSLPQFDELGYLDPDDKTRLEEQASGFPMLKVKDIKSAYSNWQILKEILGKMIKQTKASSGVIWNSFKELEESELETVIREIPAPSFLIPLPKHLTASSSSLLDHDRTVFQWLDQQPPSSVLYVSFGSSSEVDEKDFLEIARGLVDSKQSFLWVVRPGFVKGSTWVEPLPDGFLGERGRIVKWVPQQEVLAHGAIGAFWTHSGWNSTLESVCEGVPMIFSDFGLDQPLNARYMSDVLKVGVYLENGWERGEIANAIRRVMVDEEGEYIRQNARVLKQKADVSLMKGGSSYESLESLVSYISSL | relatively the highest |  | 1381 | 1235 | significantly increased |  | significantly different from those converted by wild-type | significantly different from those converted by wild-type | 
L379W: glycosyltransferase UGT76G1 mutant, mutation of L at 379th to W (SEQ ID NO: 5) (protein, Variant) MENKTETTVRRRRRIILFPVPFQGHINPILQLANVLYSKGFSITIFHTNFNKPKTSNYPHFTFRFILDNDPQDERISNLPTHGPLAGMRIPIINEHGADELRRELELLMLASEEDEEVSCLITDALWYFAQSVADSLNLRRLVLMTSSLFNFHAHVSLPQFDELGYLDPDDKTRLEEQASGFPMLKVKDIKSAYSNWQILKEILGKMIKQTKASSGVIWNSFKELEESELETVIREIPAPSFLIPLPKHLTASSSSLLDHDRTVFQWLDQQPPSSVLYVSFGSSSEVDEKDFLEIARGLVDSKQSFLWVVRPGFVKGSTWVEPLPDGFLGERGRIVKWVPQQEVLAHGAIGAFWTHSGWNSTLESVCEGVPMIFSDFGWDQPLNARYMSDVLKVGVYLENGWERGEIANAIRRVMVDEEGEYIRQNARVLKQKADVSLMKGGSSYESLESLVSYISSL |  |  |  |  |  |  |  |  | can increase
